The values that follow are results of earlier work, collected in publication PMC10382592.

The data set deals with Cys23 (UniProt position 23, FIKPTCPYCRR).

“Glutaredoxin-1 (GLRX, thioltransferase) (Homo sapiens (inferred from the title of ref 11, 'Thiotransferase in human red blood cells'; the sentence itself refers to mammalian GLRX))”: the pKa result is given as “approximately 3.5”.
